The labels stand for the following.
B1: synthetic OFQ17 with R8K (peptide)
peptide: FGGFTGAKKSARKLANQ
B2: synthetic OFQ17 with K13C (peptide)
peptide: FGGFTGARKSARCLANQ
B3: OFQ11 (peptide)
peptide: FGGFTGARKSA

The assay has as its target Orphanin FQ receptor, normal (NT), expressed in Cos-7 cells (UniProt P35370). The assay can be described thus: inhibition of [125I] Y14-OFQ17 binding, Cos-7 cells transfected with OFQR.
The IC50 is the concentration that inhibits the measured activity by half. Read a high IC50 as lower potency. As for B1, the IC50 was 0.1 nM.
The result for B2 reads 0.1 nM; that for B3, 5000 nM.

The values above are taken from patent publication US20050169917A1.
